# Measured values as given in patent US10689452 (UNIVERSIT T STUTTGART, dated 2020).
# T1: human TNFR1-Fc fusion protein (human, UniProt P19438 29-211)
# T1 construct: range 29-211; Made in stably transfected HEK293 cells; coated on ELISA plates or immobilised on QCM chips; also called huTNFR1-Fc; human TNFR-Fc; not shown: Fc part from vector pSecTagL1-Fc
# T1 sequence (looked up): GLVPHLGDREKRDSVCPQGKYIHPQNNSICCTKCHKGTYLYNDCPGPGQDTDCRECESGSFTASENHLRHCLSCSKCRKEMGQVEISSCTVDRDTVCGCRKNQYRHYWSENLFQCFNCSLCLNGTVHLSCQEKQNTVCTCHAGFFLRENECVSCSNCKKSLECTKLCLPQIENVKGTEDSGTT
# T2: human TNFR1 on cells (HT1080, HeLa, Kym-1) (human, UniProt P19438 30-455)
# T2 sequence (looked up): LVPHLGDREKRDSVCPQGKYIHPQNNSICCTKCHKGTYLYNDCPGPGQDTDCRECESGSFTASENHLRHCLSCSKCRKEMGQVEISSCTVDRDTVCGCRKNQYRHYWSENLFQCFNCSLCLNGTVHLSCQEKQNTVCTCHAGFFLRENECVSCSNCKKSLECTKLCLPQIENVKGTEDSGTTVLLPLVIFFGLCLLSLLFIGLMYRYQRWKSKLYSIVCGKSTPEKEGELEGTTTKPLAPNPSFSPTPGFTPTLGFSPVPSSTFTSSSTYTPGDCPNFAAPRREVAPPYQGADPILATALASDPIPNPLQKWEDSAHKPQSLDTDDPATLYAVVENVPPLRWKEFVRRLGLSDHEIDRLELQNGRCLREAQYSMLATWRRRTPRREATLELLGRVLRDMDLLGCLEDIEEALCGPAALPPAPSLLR
# Assays:
# [1] = target: T1, human TNFR1-Fc fusion protein; test: ELISA on coated human TNFR1-Fc, scFv titrated, signal as Binding [%]
# Description: FIG. 9. Binding to and blockade of human TNFR1.
# Microtiter plates were coated with 100 µl of the indicated protein (1 µg/ml in PBS, see Table 3.3) and incubated at 4° C. over night. The residual binding sites were blocked with 2% MPBS (skim milk in PBS, 200 µl per well) at room temperature for 2 hours and subsequently washed twice with PBS. 100 µl of the samples diluted in 2% MPBS were incubated at room temperature for 1 hour prior to the last incubation step with 100 µl of the HRP conjugated detection antibodies in 2% MPBS. In the case of competition experiments, both analyzed protein samples were prepared individually (either titrated or diluted to a single concentration) and mixed before they were applied to the plate. Bound protein was detected with 100 µl TMB substrate solution, the HRP-reaction was stopped by the addition of 50 µl 1 M H2SO4 and the absorption at the wavelength of 450 nm was measured using the Infinite microtiter plate reader (TECAN, Maennedorf, Switzerland). Between each incubation step and in advance of the detection, the plates were washed three times with PBST and twice with PBS.
# [2] = target: T2, human TNFR1 on cells (HT1080, HeLa, …); test: cell-based or functional assay
# [3] = target: T2, human TNFR1 on cells (HT1080, HeLa, …); test: cell-based or functional assay; remark: listed apart in the source
# [4] = target: T1, human TNFR1-Fc fusion protein; test: ELISA, immobilised human TNFR1-Fc
# [5] = target: T2, human TNFR1 on cells (HT1080, HeLa, …); test: cell-based or functional assay; remark: listed apart in the source
# [6] = target: T1, human TNFR1-Fc fusion protein; test: ELISA, human TNFR1-Fc
# [7] = target: T1, human TNFR1-Fc fusion protein; test: ELISA, immobilised human TNFR1-Fc; remark: listed apart in the source
binding result [1],"IL-8 Inhibition IC50 [nM] (HT1080 cells, 0.1 nM soluble TNF) [2]",EC50 [4],Binder,also measured
binds,–,–,"scFvFRK13.8 (scFv, V domains shown) VH: QVQLVESGGGLVKPGGSLRLSCAASGFTFSDFYINWIRQAPGKGLEWVSEIYPYSGHAYYNEKFKARFTISADNAKNSLYLQMNSLRAEDTAVYYCARWDFLDYWGQGTTVTVSS VL: DIVMTQSPLSLPVTPGEPASISCRSSQSLLHSNGNTYLHWYLQKPGQSPQLLIYTVSNRFSGVPDRFSGSGSGTDFTLKISRVEAEDVGVYYCSQGTHVPYTFGGGTKVEIK",–
–,61.2 nM,0.5 nM,"Fab13.7-Fckih0DS (Fc fusion, knobs-into-holes heterodimer, FcgammaR-silenced, no hinge disulfides; also called monovalent Fab13.7-Fc fusion protein) chain 1: HVQLVQSGAEVKKPGSSVKVSCKASGYTFTDFYINWVRQAPGQGLEWIGEIVPSQGEAKYNDKFKARVTITADKSTSTAYMELSSLRSEDTAVYYCARWDFLDYWGQGTTVTVSSASTKGPSVFPLAPSSKSTSGGTAALGCLVKDYFPEPVTVSWNSGALTSGVHTFPAVLQSSGLYSLSSVVTVPSSSLGTQTYICNVNHKPSNTKVDKKVEPKSCGTDKTHTSPPSPAPPVAGPSVFLFPPKPKDTLMISRTPEVTCVVVDVSHEDPEVKFNWYVDGVEVHNAKTKPREEQYNSTYRVVSVLTVLHQDWLNGKEYKCKVSNKGLPSSIEKTISKAKGQPREPQVYTLPPSRDELTKNQVSLSCAVKGFYPSDIAVEWESNGQPENNYKTTPPVLDSDGSFFLVSKLTVDKSRWQQGNVFSCSVMHEALHNHYTQKSLSLSPGK chain 2: DVQMTQSPSSLSASVGDRVTITCRSSQSLLHSNGNTYLHWYQQKPGKAPKLLIYTVSNRFSGVPSRFSGSGSGTDFTLTISSLQPEDFATYYCSQSTHVPYTFGGGTKVEIKRTVAAPSVFIFPPSDEQLKSGTASVVCLLNNFYPREAKVQWKVDNALQSGNSQESVTEQDSKDSTYSLSSTLTLSKADYEKHKVYACEVTHQGLSSPVTKSFNRGECGTDKTHTSPPSPAPPVAGPSVFLFPPKPKDTLMISRTPEVTCVVVDVSHEDPEVKFNWYVDGVEVHNAKTKPREEQYNSTYRVVSVLTVLHQDWLNGKEYKCKVSNKGLPSSIEKTISKAKGQPREPQVYTLPPSRDELTKNQVSLWCLVKGFYPSDIAVEWESNGQPENNYKTTPPVLDSDGSFFLYSKLTVDKSRWQQGNVFSCSVMHEALHNHYTQKSLSLSPGK",fold higher IC50 (IL-8 release inhibition) compared to Fab13.7 [3]: 2.3 fold
–,30.7 nM,0.3 nM,"Fv13.7-Fckih0DS (Fc fusion, also called monovalent Fv13.7-Fc fusion protein) chain 1: HVQLVQSGAEVKKPGSSVKVSCKASGYTFTDFYINWVRQAPGQGLEWIGEIVPSQGEAKYNDKFKARVTITADKSTSTAYMELSSLRSEDTAVYYCARWDFLDYWGQGTTVTVSSGTDKTHTSPPSPAPPVAGPSVFLFPPKPKDTLMISRTPEVTCVVVDVSHEDPEVKFNWYVDGVEVHNAKTKPREEQYNSTYRVVSVLTVLHQDWLNGKEYKCKVSNKGLPSSIEKTISKAKGQPREPQVYTLPPSRDELTKNQVSLSCAVKGFYPSDIAVEWESNGQPENNYKTTPPVLDSDGSFFLVSKLTVDKSRWQQGNVFSCSVMHEALHNHYTQKSLSLSPGK chain 2: DVQMTQSPSSLSASVGDRVTITCRSSQSLLHSNGNTYLHWYQQKPGKAPKLLIYTVSNRFSGVPSRFSGSGSGTDFTLTISSLQPEDFATYYCSQSTHVPYTFGGGTKVEIKGTDKTHTSPPSPAPPVAGPSVFLFPPKPKDTLMISRTPEVTCVVVDVSHEDPEVKFNWYVDGVEVHNAKTKPREEQYNSTYRVVSVLTVLHQDWLNGKEYKCKVSNKGLPSSIEKTISKAKGQPREPQVYTLPPSRDELTKNQVSLWCLVKGFYPSDIAVEWESNGQPENNYKTTPPVLDSDGSFFLYSKLTVDKSRWQQGNVFSCSVMHEALHNHYTQKSLSLSPGK",–
–,–,–,"scFvFRK13.7 (scFv, V domains shown) VH: HVQLVQSGAEVKKPGSSVKVSCKASGYTFTDFYINWVRQAPGQGLEWIGEIVPSQGEAKYNDKFKARVTITADKSTSTAYMELSSLRSEDTAVYYCARWDFLDYWGQGTTVTVSS VL: DVQMTQSPSSLSASVGDRVTITCRSSQSLLHSNGNTYLHWYQQKPGKAPKLLIYTVSNRFSGVPSRFSGSGSGTDFTLTISSLQPEDFATYYCSQSTHVPYTFGGGTKVEIK","IC50 (nM), inhibition of TNF-induced IL-8 release from HT1080 cells [5]: 284 nM; EC50 [6]: 1.09 nM"
binds,–,–,"scFvFRK13.1 (scFv, V domains shown) VH: QVQLVESGGGLVKPGGSLRLSCAASGFTFSDFYINWIRQAPGKGLEWVSEIYPYSGHAYYNEKFKARFTISRDNAKNSLYLQMNSLRAEDTAVYYCARWDFLDYWGQGTTVTVSS VL: DIQMTQSPSSLSASVGDRVTITCRSSQSLLHSNGNTYLHWYQQKPGKAPKLLIYTVSNRFSGVPSRFSGSGSGTDFTLTISSLQPEDFATYYCSQSTHVPYTFGGGTKVEIK",–
–,98.2 nM,5 nM,"Fab13.7PEG (Fab, V domains shown, PEG (printed 'PEG400.000' in paragraph 589; methoxy-PEG 40 kDa maleimide in paragraph 649) conjugated to the newly introduced cysteine of the C-terminal ...DKTHTCAA (SEQ ID 34), also called PEGylated Fab13.7'; PEGylated derivative of Fab13.7) VH: HVQLVQSGAEVKKPGSSVKVSCKASGYTFTDFYINWVRQAPGQGLEWIGEIVPSQGEAKYNDKFKARVTITADKSTSTAYMELSSLRSEDTAVYYCARWDFLDYWGQGTTVTVSS VL: DVQMTQSPSSLSASVGDRVTITCRSSQSLLHSNGNTYLHWYQQKPGKAPKLLIYTVSNRFSGVPSRFSGSGSGTDFTLTISSLQPEDFATYYCSQSTHVPYTFGGGTKVEIKR",fold increased EC50 compared to unmodified Fab13.7 [7]: 2.6 fold; fold higher IC50 (IL-8 release inhibition) compared to Fab13.7 [3]: 4.9 fold
binds,–,–,"scFvFRK13.4 (scFv, V domains shown) VH: QVQLVESGGGLVKPGGSLRLSCAASGFTFSDFYINWIRQAPGKGLEWVSEIYPYSGHAYYNEKFKARFTISADNAKNSLYLQMNSLRAEDTAVYYCARWDFLDYWGQGTTVTVSS VL: DIQMTQSPSSLSASVGDRVTITCRSSQSLLHSNGNTYLHWYQQKPGKAPKLLIYTVSNRFSGVPSRFSGSGSGTDFTLTISSLQPEDFATYYCSQSTHVPYTFGGGTKVEIK",–
–,–,–,"scFvFRK13.5 (scFv, V domains shown, also called scFvFKR13.5) VH: HVQLVQSGAEVKKPGSSVKVSCKASGYTFTDFYINWVRQAPGQGLEWIGEIVPSQGEAKYNDKFKARVTITADKSTSTAYMELSSLRSEDTAVYYCARWDFLDYWGQGTTVTVSS VL: DIQMTQSPSSLSASVGDRVTITCRSSQSLLHSNGNTYLHWYQQKPGKAPKLLIYTVSNRFSGVPSRFSGSGSGTDFTLTISSLQPEDFATYYCSQSTHVPYTFGGGTKVEIK","IC50 (nM), inhibition of TNF-induced IL-8 release from HT1080 cells [5]: 367 nM; EC50 [6]: 1.06 nM"
binds,–,–,"scFvFRK13.3 (scFv, V domains shown) VH: QVQLVESGGGLVKPGGSLRLSCAASGFTFSDFYINWIRQAPGKGLEWVSEIYPYSGHAYYNEKFKARFTISRDNAKNSLYLQMNSLRAEDTAVYYCARWDFLDYWGQGTTVTVSS VL: DVQMTQSPSSLSASVGDRVTITCRSSQSLLHSNGNTYLHWYQQKPGKAPKLLIYTVSNRFSGVPSRFSGSGSGTDFTLTISSLQPEDFATYYCSQSTHVPYTFGGGTKVEIK",–
